Data on 1 molecule can be found in article PMC6445127, “WNT5A is transported via lipoprotein particles in the cerebrospinal fluid to regulate hindbrain morphogenesis” (Nature Communications, 2019).

The target in this experiment is T1, human native APOJ (human, UniProt P10909 23-227; P10909 228-449).
T1 construct: Apolipoprotein J (Clusterin), human, native; also called isolated APOJ protein; Clusterin; source: bought: Biovendor (RD162034025)
As to the kind of experiment: co-IP; in vitro protein binding assay: 2 μg human native APOJ incubated with 150 ng recombinant WNT5A in 200 μl binding buffer (50 mM Tris pH 7.6, 100 mM NaCl, 1 mM EDTA) overnight at 4 °C; precipitated with corresponding antibody or IgG on DynaBeads; washes with 0.5% NP40. To be noted: both partners purified.

T1 sequence (P10909 23-227, chain 1 of 2): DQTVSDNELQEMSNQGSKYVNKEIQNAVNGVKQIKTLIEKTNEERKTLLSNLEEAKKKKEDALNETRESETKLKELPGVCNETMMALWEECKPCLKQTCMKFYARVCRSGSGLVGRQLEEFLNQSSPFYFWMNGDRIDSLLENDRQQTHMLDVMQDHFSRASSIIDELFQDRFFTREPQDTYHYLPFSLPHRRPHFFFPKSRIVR
T1 sequence (P10909 228-449, chain 2 of 2): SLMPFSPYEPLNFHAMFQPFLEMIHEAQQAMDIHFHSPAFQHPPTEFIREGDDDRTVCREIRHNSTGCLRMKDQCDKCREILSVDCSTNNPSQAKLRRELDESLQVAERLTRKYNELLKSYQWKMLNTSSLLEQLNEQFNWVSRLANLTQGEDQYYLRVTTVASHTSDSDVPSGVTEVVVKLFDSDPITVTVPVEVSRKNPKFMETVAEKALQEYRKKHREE

B1: recombinant WNT5A (ligand, UniProt P22725 62-380, looked up)
chain: IIGAQPLCSQLAGLSQGQKKLCHLYQDHMQYIGEGAKTGIKECQYQFRHRRWNCSTVDNTSVFGRVMQIGSRETAFTYAVSAAGVVNAMSRACREGELSTCGCSRAARPKDLPRDWLWGGCGDNIDYGYRFAKEFVDARERERIHAKGSYESARILMNLHNNEAGRRTVYNLADVACKCHGVSGSCSLKTCWLQLADFRKVGDALKEKYDSAAAMRLNSRGKLVQVNSRFNSPTTQDLVYIDPSPDYCVRNESTGSLGTQGRLCNKTSEGMDGCELMCCGRGYDQFKTVQTERCHCKFHWCCYVKCKKCTEIVDQFVCK
notes: recombinant WNT5A, R&D Systems; 'P22725' is printed where a catalogue number would stand; elsewhere the catalogue number 645-WN-010 is printed; WNT5A'; also called rcWNT5A; rcWnt5a; source: bought: R&D Systems
As for B1, the binding result is on record as “binds”.
